Here are results for 1 protein from paper PMC12186257, “Serendipitous and Systematic Chemoproteomic Discovery of MBLAC2, HINT1, and NME1‑4 Inhibitors from Histone Deacetylase-Targeting Pharmacophores” (ACS Chemical Biology, 2025).

Substrate in this data set: Nc1ncnc2c1ncn2[C@@H]1O[C@H](COP(=O)(O)NCCc2c[nH]c3ccccc23)[C@@H](O)[C@H]1O
The data set is described as follows: HINT1 enzyme activity assay (TrpA hydrolysis, fluorescence). It is filed as biochemical, human. As to conditions: other: substrate of hHint1. The text has this:
While the biologically relevant substrates of HINT1 have not been clearly elucidated, the protein has been implicated in opioid receptor signaling, − regulation of the melanoma-associated transcription factor MITF, , and DNA damage repair. These functions position HINT1 as a potential pharmacological target for treating conditions such as opioid resistance or melanoma. The only reported HINT1-targeting pharmacophores are nucleoside-based nonhydrolyzable substrate analogs, such as the carbamate TrpGC (Figure a). , We evaluated the inhibitory potential of KV-24 and KV-30 in enzyme activity assays using recombinant HINT1. […]
Mouse brain proteomics – LC-MS/MS. […] 10 µg of peptide mix was injected and analyzed using a 58 min gradient starting at 1% B up to 45% B (1 h method). […]
Mouse proteomics data analysis. The data files were analyzed with DIA-NN 1.8.1. […] The resulting protein group tables were further analyzed by Perseus 1.6.2.2. […]
CME of transferrin and confocal microscopy analyses.For transferrin uptake experiments HeLa cells were seeded on Matrigel-coated coverslips, and incubated with 0.1 % DMSO, or with 100 µM dynasore, 20 µM KV50, 2 µM KV65, or 2 µM KV79 in media containing 10% FCS at 37°C for 20 h. […] All inhibitor treatments were performed in duplicate, to enable quantification of surface levels of transferrin receptors, and to assess the capability of transferrin receptor endocytosis. […]

B1: recombinant HINT1 (hHint1) (Homo sapiens) (protein)
chain: MADEIAKAQVARPGGDTIFGKIIRKEIPAKIIFEDDRCLAFHDISPQAPTHFLVIPKKHISQISVAEDDDESLLGHLMIVGKKCAADLGLNKGYRMVVNEGSDGGQSVYHVHLHVLGGRQMHWPPG
As to B1, the Michaelis constant (Km) was found to be 0.139 µM.
